The values that follow come from article PMC6994475.

Common to all, as to test: EMSA
Common to all, as to details: EMSA: 10 nM 6-FAM oligo, 50 mM HEPES pH 7.5, 250 mM NaCl, 1 mM DTT, 2.5 mM EDTA, 10% glycerol, on ice 10 min, 8% native PAGE; sumo-rA3G after heavy RNase A/T1 …
Background: Mobility shift assays separate free from complexed probe on a gel.

Data set [1] relates to rA3G rM15 (Macaca mulatta).
Data set [2] relates to rA3G WT (parental construct, R8 K128D) (Macaca mulatta).
The test system of data set [3] is rA3G rM9 (Macaca mulatta).
Data set [4] has as its system rA3G E/Q (Macaca mulatta).
For data set [5], the system named is rA3G rM11 (Macaca mulatta).
In data set [6] the test system is rA3G rM10 (Macaca mulatta).
The test system of data set [7] is rA3G R24T (Macaca mulatta).
Data set [8] deals with rA3G rM13 (Macaca mulatta).
Data set [9] has as its system rA3G rM14 (Macaca mulatta).
Data set [10] deals with rA3G rM12 (Macaca mulatta).

As to 50 nt ssDNA, the dissociation constant (Kd) (in general, a measure of binding affinity in units of concentration) in data set [1] was 71 nM; in data set [2], 24 nM; in data set [3], 74 nM; in data set [4], 10 nM; in data set [5], 89 nM; in [6], 53 nM. For the same substance, the Kd in [7] was 51 nM; in [8], 155 nM; in data set [9], 102 nM; in [10] it was 188 nM.

Regarding 50 nt ssRNA, the Kd in data set [1] came out at 21 nM; in data set [2] it was 22 nM; in data set [3], 20 nM; in data set [4], 19 nM; in data set [5] it was 21 nM; in data set [6] it was 24 nM. Also, the Kd was determined as 21 nM in [7], 43 nM in [8], 15 nM in data set [9] and 52 nM in data set [10].
